Results from publication PMC5709467, “Solution structure and interaction with copper in vitro and in living cells of the first BIR domain of XIAP” (Scientific Reports, 2017).

Experiments:
[1] = target: D71N/R72E mutant of BIR1 (1-105) of XIAP (human) (UniProt P98170); assay: SEC; oxidised protein (C12 disulfide), analytical gel filtration on Superdex 75 10/200 GL, 20 mM Bis-Tris pH 6.5
[2] = target: D71N/R72E mutant of BIR1 (1-105) of XIAP (human) (UniProt P98170); assay: MALDI-TOF mass spectrometry; oxidised D71N/R72E BIR1; covalent (disulfide-linked) dimer; compared with a sample treated with DTT
[3] = target: the molecule itself; assay: NMR 15N relaxation (R2/R1, rotational correlation time); reduced protein, about 0.3 mM, 20 mM Bis-Tris pH 6.5, 298 K

stoichiometry N [1] | stoichiometry N [2] | Molecule | stoichiometry N [3]
2 | 2 | D71N/R72E mutant of BIR1 (1-105) of XIAP (from UniProt P98170 1-105) (domain or fragment) | 
 |  | Wild-type BIR1 (1-105 aa), first BIR domain of XIAP (domain or fragment, human, UniProt P98170 1-105, looked up, 15N- or 15N,13C-labelled for NMR; cloned into pET-3a; In the oxidised state C12 of the two subunits form a disulfide bond; also called WT BIR1) MTFNSFEGSKTCVPADINKEEEFVEEFNRLKTFANFPSGSPVSASTLARAGFLYTGEGDTVRCFSCHAAVDRWQYGDSAVGRHRKVSPNCRFINGFYLENSATQS | 2
